Measured values published in paper PMC4520604, “Affinity Maturation of Monoclonal Antibody 1E11 by Targeted Randomization in CDR3 Regions Optimizes Therapeutic Antibody Targeting of HER2-Positive Gastric Cancer” (PLoS ONE, 2015).
Positions count from the first letter of the chain named. Names and notes keep the numbering of the source. Each block holds one binder with its values, some of them ahead of it.

Legend:
Conditions in all cases: both partners purified
HER2-ECD-His protein [1] = target: T1, HER2-ECD-His protein (Homo sapiens, UniProt P04626); assay: SPR; k off analysis of Fab: HER2-ECD-His immobilised on CM5 by amine coupling at about 2,000 RU; Fab injected at 2 μg/mL, 50 μL/minute
T1 construct: human epidermal growth factor receptor 2 (HER2), extracellular region (ECD); The SPR methods name HER2-ECD-His; The ELISA legends say only 'HER2-ECD protein'; also called HER2-ECD protein; extracellular region (ECD) of HER2; source: Freestyle 293 system, secreted, purified (Ni-NTA)

HER2-ECD-His protein [2] = target: T1, HER2-ECD-His protein; assay: SPR; k off analysis of IgG: antibody captured at 1 μg/mL by goat anti-human IgG (γ) immobilised on CM5; HER2-ECD-His injected at 160 nM
HER2-ECD-His protein [3] = target: T1, HER2-ECD-His protein; assay: SPR; affinity: antibody captured at about 50 RU by goat anti-human IgG (γ) on CM5; HER2-ECD-His injected at 0 to 640 nM; fit to 1:1 (Langmuir) model
HER2-ECD-His protein [4] = target: T1, HER2-ECD-His protein; assay: as above; remark: listed apart in the source

fold increase of k off (against the parental Fab) (HER2-ECD-His protein [1]): 32 fold
B1: hz1E11 Fab, T99HA mutant (Fab, V domains shown)
VH: EVQLVESGGGLVQPGGSLRLSCAASGFTFSSYTMSWVRQAPGKGLEWVAYISNGGGSTYYPDTVKGRFTISRDNAKNSLYLQMNSLRAEDTAVYYCARHLGGAASFDYWGQGTLVTVSS
VL: DIQMTQSPSSLSASVGDRVTITCLASQTIGTWLAWYQQKPGKAPKLLIYVATSLADGVPSRFSGSGSGTDFTLTISSLQPEDFATYYCQQLYSTPWTFGQGTKVEIK
notes: as the VH of m4 (hz1E11); numbers count on: Kabat; as the VL of m4 (hz1E11); Fab in the vector pComb3X; source: E. coli DH5α, periplasmic extract, purified (IMAC)

koff (HER2-ECD-His protein [2]): 1.87e-05 s⁻¹
B2: L-1A12 + H-1B12 (IgG) (antibody, V domains shown)
VH: B1 VH with H99N, L100Y, A103T
VL: B1 VL with L91N, Y92A, S93Y, T94A
notes: as the VH of m4 (hz1E11); numbers count on: Kabat; as the VL of m4 (hz1E11); IgG; also called combination of the VH of 1B12 and VL of 1A12; source: Freestyle 293 system, purified (protein-A)

fold increase of k off (against the parental Fab) (HER2-ECD-His protein [1]): 17 fold
B3: hz1E11 Fab, G97HA mutant (Fab, V domains shown)
VH: B1 VH with G101A, A103T
VL: B1 VL
notes: as the VH of m4 (hz1E11); numbers count on: Kabat; as the VL of m4 (hz1E11); Fab in the vector pComb3X; also called G97A; source: E. coli DH5α, periplasmic extract, purified (IMAC)

koff (HER2-ECD-His protein [2]): 3.45e-05 s⁻¹
B4: L-1F11 + H-1B12 (IgG) (antibody, V domains shown)
VH: B1 VH with H99N, L100Y, A103T
VL: B1 VL with L91T, Y92A, S93F, T94S
notes: as the VH of m4 (hz1E11); numbers count on: Kabat; as the VL of m4 (hz1E11); IgG; source: Freestyle 293 system, purified (protein-A)

koff (HER2-ECD-His protein [2]): 2.59e-05 s⁻¹
B5: L-1A12 + H-2A7 (IgG) (antibody, V domains shown)
VH: B1 VH with H99N, L100F, A103T
VL: B1 VL with L91N, Y92A, S93Y, T94A
notes: as for B4

koff (HER2-ECD-His protein [2]): 5.89e-05 s⁻¹
Kd (HER2-ECD-His protein [3]): 1.4 nM
koff (HER2-ECD-His protein [3]): 0.00012 s⁻¹
kon (HER2-ECD-His protein [3]): 90000 M⁻¹ s⁻¹
B6: clone 1F11 (IgG) (antibody, V domains shown)
VH: B1 VH with A103T
VL: B1 VL with L91T, Y92A, S93F, T94S
notes: as the VH of m4 (hz1E11); CDR-H3 HLGGTASFDY; as the VL of m4 (hz1E11); numbers count on: Kabat; IgG; also called L-1F11; source: Freestyle 293 system, purified (protein-A)

koff (HER2-ECD-His protein [2]): 2.8e-05 s⁻¹
Kd (HER2-ECD-His protein [3]): 1.9 nM
koff (HER2-ECD-His protein [3]): 0.00012 s⁻¹
kon (HER2-ECD-His protein [3]): 64000 M⁻¹ s⁻¹
B7: clone 1A12 (IgG) (antibody, V domains shown)
VH: B1 VH with A103T
VL: B1 VL with L91N, Y92A, S93Y, T94A
notes: as the VH of m4 (hz1E11); CDR-H3 HLGGTASFDY; as the VL of m4 (hz1E11); numbers count on: Kabat; IgG; also called L-1A12; source: Freestyle 293 system, purified (protein-A)

koff (HER2-ECD-His protein [2]): 4.5e-05 s⁻¹
B8: L-1F11 + H-2A7 (IgG) (antibody, V domains shown)
VH: B1 VH with H99N, L100F, A103T
VL: B1 VL with L91T, Y92A, S93F, T94S
notes: as for B4

Kd (HER2-ECD-His protein [4]): 23 nM
B9: chimeric 1E11 (antibody, V domains shown)
VH: EVKLVESGGGLVQPGGSLKLSCAASGFTFSSYTMSWVRQTPEKRLEWVAYISNGGGSTYYPDTVKGRFTISRDNAKNTLYLQMSSLKSEDTAMYYCARHLGGTASFDYWGQGTTVTVSS
VL: DIQMTQSPASQSASLGESVTITCLASQTIGTWLAWYQQKPGKSPQLLIYVATSLADGVPSRFSGSGSGTKFSFKISSLQAEDFVSYYCQQLYSTPWTFGGGTKLELK
notes: VH of murine 1E11; VL of murine 1E11; Chimeric IgG; also called ch1E11; parental ch1E11; source: Freestyle 293 system, purified (protein-A)
